Data on 2 substances can be found in patent US20030119772A1.

For the assay, the target named is ZEB expressed in NIH 3T3 cells in the p21 promoter luciferase reporter assay. In words: cell-based or functional assay.

On to CtBP1, for which the p21-promoter-driven luciferase reporter (p53-mediated transactivation) in NIH 3T3 cells worked out at 4 fold.

Substance “53BP1 co-expressed in NIH 3T3 cells in the p21 promoter luciferase reporter assay” registered a p21-promoter-driven luciferase reporter in NIH 3T3 cells, relative light units of 2 fold.
